We go through nine variants from article PMC7232412.

Sequences and labels used below:
B1: unnamed (parent)
chain 1: MAVSESQLKKMVSKYKYRDLTVRETVNVITLYKDLKPVLDSYVFNDGSSRELMNLTGTIPVPYRGNTYNIPICLWLLDTYPYNPPICFVKPTSSMTIKTGKHVDANGKIYLPYLHEWKHPQSDLLGLIQVMIVVFGDEPPVFSRPISASYPPYQATGPPNTSYMPGMPGGISPYPSGYPPNPSGYPGCPYPPGGPYPATTSSQYPSQPPVTTVGPSRDGTISEDTIRASLISAVSDKLRWRMKEEMDRAQAELNALKRTEEDLKKGHQKLEEMVTRLDQEVAEVDKNIELLKKKDEELSSALEKMENQSENNDIDEVIIPTAPLYKQILNLYAEENAIEDTIFYLGEALRRGVIDLDVFLKHVRLLSRKQFQLRALMQKARKTAGLSDLY
chain 2: LQSRPEPTAPPEESFRSGVETTTPPQKQEPIDKELYPLTSLRSLFGNDPSSQ

This assay covers variants of B1. The assay is described as follows: yeast 2-hybrid assay. The settings on record: with partner chain of the complex shown; parent: 1; read off a plot.
For chain 1 MAVSESQLAAMVSKYKYRDLTVRETVNVITLYKDLKPVLDSYVFNDGSSRELMNLTGTIPVPYRGNTYNIPICLWLLDTYPYNPPICFVKPTSSMTIKTGKHVDANGKIYLPYLHEWKHPQSDLLGLIQVMIVVFGDEPPVFSRPISASYPPYQATGPPNTSYMPGMPGGISPYPSGYPPNPSGYPGCPYPPGGPYPATTSSQYPSQPPVTTVGPSRDGTISEDTIRASLISAVSDKLRWRMKEEMDRAQAELNALKRTEEDLKKGHQKLEEMVTRLDQEVAEVDKNIELLKKKDEELSSALEKMENQSENNDIDEVIIPTAPLYKQILNLYAEENAIEDTIFYLGEALRRGVIDLDVFLKHVRLLSRKQFQLRALMQKARKTAGLSDLY [chain 1 K9A K10A], the ratio to parent worked out at 9.3. For the variant chain 1 MAVSESQLKAMVSKYKYRDLTVRETVNVITLYKDLKPVLDSYVFNDGSSRELMNLTGTIPVPYRGNTYNIPICLWLLDTYPYNPPICFVKPTSSMTIKTGKHVDANGKIYLPYLHEWKHPQSDLLGLIQVMIVVFGDEPPVFSRPISASYPPYQATGPPNTSYMPGMPGGISPYPSGYPPNPSGYPGCPYPPGGPYPATTSSQYPSQPPVTTVGPSRDGTISEDTIRASLISAVSDKLRWRMKEEMDRAQAELNALKRTEEDLKKGHQKLEEMVTRLDQEVAEVDKNIELLKKKDEELSSALEKMENQSENNDIDEVIIPTAPLYKQILNLYAEENAIEDTIFYLGEALRRGVIDLDVFLKHVRLLSRKQFQLRALMQKARKTAGLSDLY [chain 1 K10A], the ratio to parent is 2.9.

Regarding chain 1 MAVSESQLKKMVSKYAYRDLTVRETVNVITLYKDLKPVLDSYVFNDGSSRELMNLTGTIPVPYRGNTYNIPICLWLLDTYPYNPPICFVKPTSSMTIKTGKHVDANGKIYLPYLHEWKHPQSDLLGLIQVMIVVFGDEPPVFSRPISASYPPYQATGPPNTSYMPGMPGGISPYPSGYPPNPSGYPGCPYPPGGPYPATTSSQYPSQPPVTTVGPSRDGTISEDTIRASLISAVSDKLRWRMKEEMDRAQAELNALKRTEEDLKKGHQKLEEMVTRLDQEVAEVDKNIELLKKKDEELSSALEKMENQSENNDIDEVIIPTAPLYKQILNLYAEENAIEDTIFYLGEALRRGVIDLDVFLKHVRLLSRKQFQLRALMQKARKTAGLSDLY [chain 1 K16A], the ratio to parent was 2.4. On to chain 1 MAVSESQLKKMVSKYKYRDLTVRETVNVITLYKDLKPVLDAYVFNDGSSRELMNLTGTIPVPYRGNTYNIPICLWLLDTYPYNPPICFVKPTSSMTIKTGKHVDANGKIYLPYLHEWKHPQSDLLGLIQVMIVVFGDEPPVFSRPISASYPPYQATGPPNTSYMPGMPGGISPYPSGYPPNPSGYPGCPYPPGGPYPATTSSQYPSQPPVTTVGPSRDGTISEDTIRASLISAVSDKLRWRMKEEMDRAQAELNALKRTEEDLKKGHQKLEEMVTRLDQEVAEVDKNIELLKKKDEELSSALEKMENQSENNDIDEVIIPTAPLYKQILNLYAEENAIEDTIFYLGEALRRGVIDLDVFLKHVRLLSRKQFQLRALMQKARKTAGLSDLY [chain 1 S41A], for which the ratio to parent stood at 1.3. On to chain 1 MAVSESQLKKMVSKYKYRDLTVRETVNVITLYKDLKPVLDSYVFNDGSSRELMNLTGTIPVPYRGNTYNIPICLWLLDTYPYNPPICFVKPTSSMTIKTGKHVDANGKIALPYLHEWKHPQSDLLGLIQVMIVVFGDEPPVFSRPISASYPPYQATGPPNTSYMPGMPGGISPYPSGYPPNPSGYPGCPYPPGGPYPATTSSQYPSQPPVTTVGPSRDGTISEDTIRASLISAVSDKLRWRMKEEMDRAQAELNALKRTEEDLKKGHQKLEEMVTRLDQEVAEVDKNIELLKKKDEELSSALEKMENQSENNDIDEVIIPTAPLYKQILNLYAEENAIEDTIFYLGEALRRGVIDLDVFLKHVRLLSRKQFQLRALMQKARKTAGLSDLY [chain 1 Y110A], for which the ratio to parent was determined as 0.35. chain 1 MAVSESQLKKAAAAYKYRDLTVRETVNVITLYKDLKPVLDSYVFNDGSSRELMNLTGTIPVPYRGNTYNIPICLWLLDTYPYNPPICFVKPTSSMTIKTGKHVDANGKIYLPYLHEWKHPQSDLLGLIQVMIVVFGDEPPVFSRPISASYPPYQATGPPNTSYMPGMPGGISPYPSGYPPNPSGYPGCPYPPGGPYPATTSSQYPSQPPVTTVGPSRDGTISEDTIRASLISAVSDKLRWRMKEEMDRAQAELNALKRTEEDLKKGHQKLEEMVTRLDQEVAEVDKNIELLKKKDEELSSALEKMENQSENNDIDEVIIPTAPLYKQILNLYAEENAIEDTIFYLGEALRRGVIDLDVFLKHVRLLSRKQFQLRALMQKARKTAGLSDLY [chain 1 M11A V12A S13A K14A]: the ratio to parent is 1.9. For chain 1 MAVSESQLKKMVSKYKYRDLTVRETVNVITLYKDLKPVLDSYVFNDGSSRELMNLTGTIPVPYRGNTYNIPICLWLLDTYPANPPICFVKPTSSMTIKTGKHVDANGKIYLPYLHEWKHPQSDLLGLIQVMIVVFGDEPPVFSRPISASYPPYQATGPPNTSYMPGMPGGISPYPSGYPPNPSGYPGCPYPPGGPYPATTSSQYPSQPPVTTVGPSRDGTISEDTIRASLISAVSDKLRWRMKEEMDRAQAELNALKRTEEDLKKGHQKLEEMVTRLDQEVAEVDKNIELLKKKDEELSSALEKMENQSENNDIDEVIIPTAPLYKQILNLYAEENAIEDTIFYLGEALRRGVIDLDVFLKHVRLLSRKQFQLRALMQKARKTAGLSDLY [chain 1 Y82A], the ratio to parent is 0.8. With chain 1 MAVSESAAKKMVSKYKYRDLTVRETVNVITLYKDLKPVLDSYVFNDGSSRELMNLTGTIPVPYRGNTYNIPICLWLLDTYPYNPPICFVKPTSSMTIKTGKHVDANGKIYLPYLHEWKHPQSDLLGLIQVMIVVFGDEPPVFSRPISASYPPYQATGPPNTSYMPGMPGGISPYPSGYPPNPSGYPGCPYPPGGPYPATTSSQYPSQPPVTTVGPSRDGTISEDTIRASLISAVSDKLRWRMKEEMDRAQAELNALKRTEEDLKKGHQKLEEMVTRLDQEVAEVDKNIELLKKKDEELSSALEKMENQSENNDIDEVIIPTAPLYKQILNLYAEENAIEDTIFYLGEALRRGVIDLDVFLKHVRLLSRKQFQLRALMQKARKTAGLSDLY [chain 1 Q7A L8A], the ratio to parent was found to be 1.1. On to chain 1 MAVSESQLKKMVSKYKYRDLTVRETVNVITLYKDLKPVLDSAVFNDGSSRELMNLTGTIPVPYRGNTYNIPICLWLLDTYPYNPPICFVKPTSSMTIKTGKHVDANGKIYLPYLHEWKHPQSDLLGLIQVMIVVFGDEPPVFSRPISASYPPYQATGPPNTSYMPGMPGGISPYPSGYPPNPSGYPGCPYPPGGPYPATTSSQYPSQPPVTTVGPSRDGTISEDTIRASLISAVSDKLRWRMKEEMDRAQAELNALKRTEEDLKKGHQKLEEMVTRLDQEVAEVDKNIELLKKKDEELSSALEKMENQSENNDIDEVIIPTAPLYKQILNLYAEENAIEDTIFYLGEALRRGVIDLDVFLKHVRLLSRKQFQLRALMQKARKTAGLSDLY [chain 1 Y42A], for which the ratio to parent stood at 0.95.
